In publication doi:10.1101/509141:
Read-outs that look alike come from different tables or passages of the source.

Key:
Test in all cases: BLI
[1] = biological target: Bacteriophage Sf6, whole virions (bacteriophage Sf6)
[2] = biological target: Bacteriophage Sf6, whole virions (bacteriophage Sf6); remark: listed apart in the source
[3] = biological target: Bacteriophage Sf6, whole virions (bacteriophage Sf6); remark: listed apart in the source
[4] = biological target: Bacteriophage Sf6, whole virions (bacteriophage Sf6); remark: listed apart in the source

“OmpA-TM_(E.coli), transmembrane domain of E. coli outer membrane protein A (domain or fragment)” was tested, and the Kd [1] was 25 nM.
In the case of “OmpA-TM_(S.flex), transmembrane domain of S. flexneri outer membrane protein A (domain or fragment)”, the Kd [2] is reported as 99.6 nM, the Kd [1] is reported as 36 nM and the Kd [3] is reported as 82.3 nM. The Kd [4] was 89.9 nM.
For “S. flexneri OmpA-TM N155E (domain or fragment)”, the Kd [1] was 6.9 to 65.4 nM.
